Measured values from paper PMC4090178, “Structural and Biochemical Characterization of Human PR70 in Isolation and in Complex with the Scaffolding Subunit of Protein Phosphatase 2A” (PLoS ONE, 2014).

B1: PR70 (130–555) (domain or fragment, human, UniProt Q9Y5P8 130-555, looked up)
chain: FPRGRPQDSVNVDAVISKIESTFARFPHERATMDDMGLVAKACGCPLYWKGPLFYGAGGERTGSVSVHKFVAMWRKILQNCHDDAAKFVHLLMSPGCNYLVQEDFVPFLQDVVNTHPGLSFLKEASEFHSRYITTVIQRIFYAVNRSWSGRITCAELRRSSFLQNVALLEEEADINQLTEFFSYEHFYVIYCKFWELDTDHDLLIDADDLARHNDHALSTKMIDRIFSGAVTRGRKVQKEGKISYADFVWFLISEEDKKTPTSIEYWFRCMDLDGDGALSMFELEYFYEEQCRRLDSMAIEALPFQDCLCQMLDLVKPRTEGKITLQDLKRCKLANVFFDTFFNIEKYLDHEQKEQISLLRDGDSGGPELSDWEKYAAEEYDILVAEETAGEPWEDGFEAELSPVEQKLSALRSPLAQRPFFEAPS
notes: PR70 (B''β), regulatory B'' subunit of PP2A, human, product of PPP2R3B; residues 130–555; source: E. coli BL21(DE3), purified (IMAC, TEV cleavage, gel filtration); not shown: His tag, N-terminal, cleaved
B2: PR70 (130–504) (domain or fragment, human, UniProt Q9Y5P8 130-504, looked up)
chain: FPRGRPQDSVNVDAVISKIESTFARFPHERATMDDMGLVAKACGCPLYWKGPLFYGAGGERTGSVSVHKFVAMWRKILQNCHDDAAKFVHLLMSPGCNYLVQEDFVPFLQDVVNTHPGLSFLKEASEFHSRYITTVIQRIFYAVNRSWSGRITCAELRRSSFLQNVALLEEEADINQLTEFFSYEHFYVIYCKFWELDTDHDLLIDADDLARHNDHALSTKMIDRIFSGAVTRGRKVQKEGKISYADFVWFLISEEDKKTPTSIEYWFRCMDLDGDGALSMFELEYFYEEQCRRLDSMAIEALPFQDCLCQMLDLVKPRTEGKITLQDLKRCKLANVFFDTFFNIEKYLDHEQKEQISLLRDGDSGGPELSDWEK
notes: PR70 (B''β), regulatory B'' subunit of PP2A, human, product of PPP2R3B; residues 130–504; source: E. coli BL21(DE3), purified (IMAC, TEV cleavage, gel filtration); not shown: His tag, N-terminal, cleaved
B3: PR70 core fragment (residues 130–483) (domain or fragment, human, UniProt Q9Y5P8 130-483, looked up)
chain: FPRGRPQDSVNVDAVISKIESTFARFPHERATMDDMGLVAKACGCPLYWKGPLFYGAGGERTGSVSVHKFVAMWRKILQNCHDDAAKFVHLLMSPGCNYLVQEDFVPFLQDVVNTHPGLSFLKEASEFHSRYITTVIQRIFYAVNRSWSGRITCAELRRSSFLQNVALLEEEADINQLTEFFSYEHFYVIYCKFWELDTDHDLLIDADDLARHNDHALSTKMIDRIFSGAVTRGRKVQKEGKISYADFVWFLISEEDKKTPTSIEYWFRCMDLDGDGALSMFELEYFYEEQCRRLDSMAIEALPFQDCLCQMLDLVKPRTEGKITLQDLKRCKLANVFFDTFFNIEKYLDHEQK
notes: PR70 (B''β), regulatory B'' subunit of PP2A, human, product of PPP2R3B; The crystal (PDB 4MEW) was of the selenomethionine-labelled protein alone; the model holds residues 134–481; also called PR70 core domain; source: E. coli BL21(DE3), purified (IMAC, TEV cleavage, gel filtration); not shown: His tag, N-terminal, cleaved
B4: PR72 (24–529) (domain or fragment, UniProt Q06190-2 24-529, looked up)
chain: GCDFVLPSRFKKRLKSFQQTQIQNKPEKKPGTPLPPPATSPSSPRPLSPVPHVNNVVNAPLSINIPRFYFPEGLPDTCSNHEQTLSRIETAFMDIEEQKADIYEMGKIAKVCGCPLYWKAPMFRAAGGEKTGFVTAQSFIAMWRKLLNNHHDDASKFICLLAKPNCSSLEQEDFIPLLQDVVDTHPGLTFLKDAPEFHSRYITTVIQRIFYTVNRSWSGKITSTEIRKSNFLQTLALLEEEEDINQITDYFSYEHFYVIYCKFWELDTDHDLYISQADLSRYNDQASSSRIIERIFSGAVTRGKTIQKEGRMSYADFVWFLISEEDKRNPTSIEYWFRCMDVDGDGVLSMYELEYFYEEQCERMEAMGIEPLPFHDLLCQMLDLVKPAVDGKITLRDLKRCRMAHIFYDTFFNLEKYLDHEQRDPFAVQKDVENDGPEPSDWDRFAAEEYETLVAEESAQAQFQEGFEDYETDEPASPSEFGNKSNKILSASLPEKCGKLQSVDEE
notes: PR72 (B''α2), regulatory B'' subunit of PP2A, product of PPP2R3A; residues 24–529; the end at 529 fits the PR72 isoform of 529 residues, not PR130; also called PR72 subunit (residue 24–529); B''α2; source: E. coli BL21(DE3), purified (IMAC, TEV cleavage, gel filtration); not shown: His tag, N-terminal, cleaved
B5: PR70 (25–575) (domain or fragment, human, UniProt Q9Y5P8 25-575, looked up)
chain: EASTQRMLQDCLRRIKAPGRDQPTPGDGEQPGAWPTAPLAAPRPSGLEPPGTPGPGPALPLGAASSPRNAPHVRGTRRSAGTRVVQTRKEEPLPPATSQSIPTFYFPRGRPQDSVNVDAVISKIESTFARFPHERATMDDMGLVAKACGCPLYWKGPLFYGAGGERTGSVSVHKFVAMWRKILQNCHDDAAKFVHLLMSPGCNYLVQEDFVPFLQDVVNTHPGLSFLKEASEFHSRYITTVIQRIFYAVNRSWSGRITCAELRRSSFLQNVALLEEEADINQLTEFFSYEHFYVIYCKFWELDTDHDLLIDADDLARHNDHALSTKMIDRIFSGAVTRGRKVQKEGKISYADFVWFLISEEDKKTPTSIEYWFRCMDLDGDGALSMFELEYFYEEQCRRLDSMAIEALPFQDCLCQMLDLVKPRTEGKITLQDLKRCKLANVFFDTFFNIEKYLDHEQKEQISLLRDGDSGGPELSDWEKYAAEEYDILVAEETAGEPWEDGFEAELSPVEQKLSALRSPLAQRPFFEAPSPLGAVDLYEYACGDEDLEPL
notes: PR70 (B''β), regulatory B'' subunit of PP2A, human, product of PPP2R3B; also called B''/PR70; source: E. coli BL21(DE3), purified (IMAC, TEV cleavage, gel filtration); not shown: His tag, N-terminal, cleaved
B6: PR70 (105–575) (domain or fragment, human, UniProt Q9Y5P8 105-575, looked up)
chain: GTRVVQTRKEEPLPPATSQSIPTFYFPRGRPQDSVNVDAVISKIESTFARFPHERATMDDMGLVAKACGCPLYWKGPLFYGAGGERTGSVSVHKFVAMWRKILQNCHDDAAKFVHLLMSPGCNYLVQEDFVPFLQDVVNTHPGLSFLKEASEFHSRYITTVIQRIFYAVNRSWSGRITCAELRRSSFLQNVALLEEEADINQLTEFFSYEHFYVIYCKFWELDTDHDLLIDADDLARHNDHALSTKMIDRIFSGAVTRGRKVQKEGKISYADFVWFLISEEDKKTPTSIEYWFRCMDLDGDGALSMFELEYFYEEQCRRLDSMAIEALPFQDCLCQMLDLVKPRTEGKITLQDLKRCKLANVFFDTFFNIEKYLDHEQKEQISLLRDGDSGGPELSDWEKYAAEEYDILVAEETAGEPWEDGFEAELSPVEQKLSALRSPLAQRPFFEAPSPLGAVDLYEYACGDEDLEPL
notes: PR70 (B''β), regulatory B'' subunit of PP2A, human, product of PPP2R3B; source: E. coli BL21(DE3), purified (IMAC, TEV cleavage, gel filtration); not shown: His tag, N-terminal, cleaved

Key:
Assay in all cases: ITC; B''-constructs at 20–40 µM in the cell titrated with 200–300 µM Aα or Aβ constructs; 15°C; 20 mM Tris pH 7.5, 200 mM NaCl, 2 mM CaCl2; 1:1 binding model
PR70 (25–575) = target: B5
PR70 (105–575) = target: B6
A α (HEAT1–15) = target: T1, A α (HEAT1–15) (UniProt P30153 1-589); details: both partners purified
T1 construct: PP2A scaffolding subunit A, α isoform, product of PPP2R1A; HEAT repeats 1–15; calculated molecular weight 65.3 kD; also called full length A-subunit; scaffolding A subunit; source: E. coli BL21(DE3), purified (IMAC, TEV cleavage, gel filtration); not shown: His tag, N-terminal, cleaved
T1 sequence (P30153 whole entry, canonical isoform): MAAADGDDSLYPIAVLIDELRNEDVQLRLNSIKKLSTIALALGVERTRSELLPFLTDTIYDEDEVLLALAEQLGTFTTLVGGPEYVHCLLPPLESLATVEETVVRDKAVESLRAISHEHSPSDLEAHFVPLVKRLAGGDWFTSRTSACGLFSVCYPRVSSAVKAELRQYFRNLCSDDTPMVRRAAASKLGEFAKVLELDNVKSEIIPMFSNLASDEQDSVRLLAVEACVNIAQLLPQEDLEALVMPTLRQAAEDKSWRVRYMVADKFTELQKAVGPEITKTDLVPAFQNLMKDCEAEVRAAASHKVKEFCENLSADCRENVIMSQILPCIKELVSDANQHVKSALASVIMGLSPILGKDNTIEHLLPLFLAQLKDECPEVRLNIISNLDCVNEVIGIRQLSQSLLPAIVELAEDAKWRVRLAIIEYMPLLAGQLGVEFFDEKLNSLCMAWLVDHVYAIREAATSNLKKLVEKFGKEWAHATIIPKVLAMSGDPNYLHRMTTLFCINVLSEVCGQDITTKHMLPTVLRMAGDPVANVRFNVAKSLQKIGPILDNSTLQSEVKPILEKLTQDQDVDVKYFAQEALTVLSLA

Molecule | Kd (A α (HEAT1–15)) [nM] | other results
A β (HEAT1–15) (from UniProt P30154 1-601) (natural protein) |  | Kd (PR70 (25–575)): 702 nM; dH (PR70 (25–575)): -21.5 kcal/mol; stoichiometry N (PR70 (25–575)): 1.01; Kd (PR70 (105–575)): 411 nM; dH (PR70 (105–575)): -17.1 kcal/mol; stoichiometry N (PR70 (105–575)): 0.86
B1 | > 100000 | 
B2 | > 100000 | 
B3 | > 100000 | 
B4 | 2920 ± 300 | 
B5 | 112 ± 6 | 
B6 | 45 ± 8 | 
